According to patent US20210388087A1 (Chugai, published 2021):
Where a chain is given by its changes, count along the chain named. In names and notes the source's numbering stands.

T1: Human CD3eg linker (human)
T1 construct: Single chain: epsilon and gamma subunits of human CD3 joined by a 29-mer linker, Flag-tag at the C-terminus; also called recombinant human CD3
T1 chain: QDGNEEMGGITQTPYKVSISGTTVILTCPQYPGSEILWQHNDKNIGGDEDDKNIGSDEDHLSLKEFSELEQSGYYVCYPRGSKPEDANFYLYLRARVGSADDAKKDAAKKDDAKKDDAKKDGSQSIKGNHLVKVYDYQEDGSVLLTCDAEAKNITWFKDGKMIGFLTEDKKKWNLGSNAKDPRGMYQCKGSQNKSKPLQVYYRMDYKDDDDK

B1: H183/L072 VH Q50K (antibody, name in Kabat numbering, V domains shown)
VH: QVQLVESGGGLVQPGRSLRLSCAASGFTFSNAWMHWVRQAPGKGLEWVAKIKDKGNAYAAYYAPSVKGRFTISRDDSKNSIYLQMNSLKTEDTAVYYCHYVHYASASTVLPAFGVDAWGQGTTVTVSS
VL: DIVMTQSPLSLPVTPGEPASISCQASQELVHMNRNTYLHWYQQKPGQAPRLLIYKVSNRFPGVPDRFSGSGSGTDFTLKISRVEAEDVGVYYCAQGTSVPFTFGQGTKLEIK
B2: H183/L072 VH S30K (antibody, name in Kabat numbering, V domains shown)
VH: B1 VH with S30K, K50Q
VL: B1 VL
B3: H183/L072 VH Q50T (antibody, name in Kabat numbering, V domains shown)
VH: B1 VH with K50T
VL: B1 VL
B4: H183/L072 VH S62I (antibody, name in Kabat numbering, V domains shown)
VH: B1 VH with K50Q, S65I
VL: B1 VL
B5: H183/L072 VH S30E (antibody, name in Kabat numbering, V domains shown)
VH: B1 VH with S30E, K50Q
VL: B1 VL
B6: H183/L072 VH S30Q (antibody, name in Kabat numbering, V domains shown)
VH: B1 VH with S30Q, K50Q
VL: B1 VL
B7: H183/L072 VH S30W (antibody, name in Kabat numbering, V domains shown)
VH: B1 VH with S30W, K50Q
VL: B1 VL
B8: H183/L072 VH S30Y (antibody, name in Kabat numbering, V domains shown)
VH: B1 VH with S30Y, K50Q
VL: B1 VL
B9: H183/L072 VH S30F (antibody, name in Kabat numbering, V domains shown)
VH: B1 VH with S30F, K50Q
VL: B1 VL
B10: H183/L072 VH Q50V (antibody, name in Kabat numbering, V domains shown)
VH: B1 VH with K50V
VL: B1 VL
B11: H183/L072 VH Q50L (antibody, name in Kabat numbering, V domains shown)
VH: B1 VH with K50L
VL: B1 VL
B12: H183/L072 VH S30N (antibody, name in Kabat numbering, V domains shown)
VH: B1 VH with S30N, K50Q
VL: B1 VL
B13: H183/L072 VH S30A (antibody, name in Kabat numbering, V domains shown)
VH: B1 VH with S30A, K50Q
VL: B1 VL
B14: H183/L072 VH S30H (antibody, name in Kabat numbering, V domains shown)
VH: B1 VH with S30H, K50Q
VL: B1 VL
B15: H183/L072 VH Q50M (antibody, name in Kabat numbering, V domains shown)
VH: B1 VH with K50M
VL: B1 VL
B16: H183/L072 VH S30D (antibody, name in Kabat numbering, V domains shown)
VH: B1 VH with S30D, K50Q
VL: B1 VL
B17: H183/L072 VH S30L (antibody, name in Kabat numbering, V domains shown)
VH: B1 VH with S30L, K50Q
VL: B1 VL
B18: H183/L072 VH Q50P (antibody, name in Kabat numbering, V domains shown)
VH: B1 VH with K50P
VL: B1 VL
B19: H183/L072 VH S62L (antibody, name in Kabat numbering, V domains shown)
VH: B1 VH with K50Q, S65L
VL: B1 VL
B20: H183/L072 VH S30P (antibody, name in Kabat numbering, V domains shown)
VH: B1 VH with S30P, K50Q
VL: B1 VL
B21: H183/L072 VH S30I (antibody, name in Kabat numbering, V domains shown)
VH: B1 VH with S30I, K50Q
VL: B1 VL
B22: H183/L072 VH S62M (antibody, name in Kabat numbering, V domains shown)
VH: B1 VH with K50Q, S65M
VL: B1 VL
B23: H183/L072 VH S62A (antibody, name in Kabat numbering, V domains shown)
VH: B1 VH with K50Q, S65A
VL: B1 VL
B24: H183/L072 VH S30R (antibody, name in Kabat numbering, V domains shown)
VH: B1 VH with S30R, K50Q
VL: B1 VL
B25: H183/L072 VH Q50S (antibody, name in Kabat numbering, V domains shown)
VH: B1 VH with K50S
VL: B1 VL
B26: H183/L072 VH S30G (antibody, name in Kabat numbering, V domains shown)
VH: B1 VH with S30G, K50Q
VL: B1 VL
B27: H183/L072 VH Q50N (antibody, name in Kabat numbering, V domains shown)
VH: B1 VH with K50N
VL: B1 VL
B28: H183/L072 VH Q50R (antibody, name in Kabat numbering, V domains shown)
VH: B1 VH with K50R
VL: B1 VL
B29: H183/L072 VH S30T (antibody, name in Kabat numbering, V domains shown)
VH: B1 VH with S30T, K50Q
VL: B1 VL
B30: H183/L072 VH Q50W (antibody, name in Kabat numbering, V domains shown)
VH: B1 VH with K50W
VL: B1 VL
B31: H183/L072 VH Q50Y (antibody, name in Kabat numbering, V domains shown)
VH: B1 VH with K50Y
VL: B1 VL
B32: H183/L072 VH S30V (antibody, name in Kabat numbering, V domains shown)
VH: B1 VH with S30V, K50Q
VL: B1 VL
B33: H183/L072 VH S30M (antibody, name in Kabat numbering, V domains shown)
VH: B1 VH with S30M, K50Q
VL: B1 VL

Target: T1, Human CD3eg linker
Test: Biacore SPR, vs template H183/L072

Compared with B1, B2 is higher in “fold change of affinity” value: 0 fold for the first, 0.9 fold for the second.

First: B3
Second: B4
The “fold change of affinity” value of the first is lower: 0 fold for the first, 1.4 fold for the second.

First: B5
Second: B6
The “fold change of affinity” value of the first is lower: 0.6 fold for the first, 0.8 fold for the second.

Going from B7 to B8, the “fold change of affinity” value falls from 1.3 fold to 1.2 fold.

First: B9
Second: B10
The “fold change of affinity” value of the first is higher: 1 fold for the first, 0 fold for the second.

First: B11
Second: B12
The “fold change of affinity” value of the first is lower: 0.2 fold for the first, 0.7 fold for the second.

Going from B13 to B14, the “fold change of affinity” value rises from 0.8 fold to 1 fold.

Going from B15 to B16, the “fold change of affinity” value rises from 0.1 fold to 1 fold.

Going from B17 to B18, the “fold change of affinity” value falls from 0.8 fold to 0 fold.

Going from B19 to B20, the “fold change of affinity” value falls from 1.5 fold to 0.3 fold.

Compared with B21, B22 is higher in “fold change of affinity” value: 0.8 fold for the first, 1.3 fold for the second.

First: B23
Second: B24
The “fold change of affinity” value of the first is higher: 1.4 fold for the first, 0.8 fold for the second.

First: B25
Second: B26
The “fold change of affinity” value of the first is lower: 0 fold for the first, 1.1 fold for the second.

B27 and B28 are the same in “fold change of affinity” value: 0 fold for the first, 0 fold for the second.

Compared with B29, B30 is lower in “fold change of affinity” value: 1.1 fold for the first, 0 fold for the second.

First: B31
Second: B32
The “fold change of affinity” value of the first is higher: 0.9 fold for the first, 0.8 fold for the second.

With B33 the “fold change of affinity” value was 0.7 fold.
